Data: paper PMC11375168 (Nature Communications, 2024)

Biological target: the molecule itself
Test: cryo-EM structure

B1: Mycobacterium tuberculosis EfpA (MtEfpA), full length, with C-terminal GFP and Strep-Tag II (natural protein)
chain: MTALNDTERAVRNWTAGRPHRPAPMRPPRSEETASERPSRYYPTWLPSRSFIAAVIAIGGMQLLATMDSTVAIVALPKIQNELSLSDAGRSWVITAYVLTFGGLMLLGGRLGDTIGRKRTFIVGVALFTISSVLCAVAWDEATLVIARLSQGVGSAIASPTGLALVATTFPKGPARNAATAVFAAMTAIGSVMGLVVGGALTEVSWRWAFLVNVPIGLVMIYLARTALRETNKERMKLDATGAILATLACTAAVFAFSIGPEKGWMSGITIGSGLVALAAAVAFVIVERTAENPVVPFHLFRDRNRLVTFSAILLAGGVMFSLTVCIGLYVQDILGYSALRAGVGFIPFVIAMGIGLGVSSQLVSRFSPRVLTIGGGYLLFGAMLYGSFFMHRGVPYFPNLVMPIVVGGIGIGMAVVPLTLSAIAGVGFDQIGPVSAIALMLQSLGGPLVLAVIQAVITSRTLYLGGTTGPVKFMNDVQLAALDHAYTYGLLWVAGAAIIVGGMALFIGYTPQQVAHAQEVKEAIDAGEL
In the case of B1, the “stoichiometry N” value is reported as 2.
